The target in this test is T1, recombinant Aub with N-terminal His-, Myc- and 3xFLAG-tags (Drosophila, UniProt O76922 1-866).
T1 construct: Aubergine (Aub), Drosophila; aub cDNA cloned into pFastBac/NT-TOPO; also called FLAG-tagged Aub; Aubergine; source: Sf9 (bacmid from pFastBac/NT-TOPO), purified (anti-c-Myc beads, c-Myc peptide elution); not shown: Myc, N-terminal, kept; 3xFLAG, N-terminal, kept
T1 sequence (looked up): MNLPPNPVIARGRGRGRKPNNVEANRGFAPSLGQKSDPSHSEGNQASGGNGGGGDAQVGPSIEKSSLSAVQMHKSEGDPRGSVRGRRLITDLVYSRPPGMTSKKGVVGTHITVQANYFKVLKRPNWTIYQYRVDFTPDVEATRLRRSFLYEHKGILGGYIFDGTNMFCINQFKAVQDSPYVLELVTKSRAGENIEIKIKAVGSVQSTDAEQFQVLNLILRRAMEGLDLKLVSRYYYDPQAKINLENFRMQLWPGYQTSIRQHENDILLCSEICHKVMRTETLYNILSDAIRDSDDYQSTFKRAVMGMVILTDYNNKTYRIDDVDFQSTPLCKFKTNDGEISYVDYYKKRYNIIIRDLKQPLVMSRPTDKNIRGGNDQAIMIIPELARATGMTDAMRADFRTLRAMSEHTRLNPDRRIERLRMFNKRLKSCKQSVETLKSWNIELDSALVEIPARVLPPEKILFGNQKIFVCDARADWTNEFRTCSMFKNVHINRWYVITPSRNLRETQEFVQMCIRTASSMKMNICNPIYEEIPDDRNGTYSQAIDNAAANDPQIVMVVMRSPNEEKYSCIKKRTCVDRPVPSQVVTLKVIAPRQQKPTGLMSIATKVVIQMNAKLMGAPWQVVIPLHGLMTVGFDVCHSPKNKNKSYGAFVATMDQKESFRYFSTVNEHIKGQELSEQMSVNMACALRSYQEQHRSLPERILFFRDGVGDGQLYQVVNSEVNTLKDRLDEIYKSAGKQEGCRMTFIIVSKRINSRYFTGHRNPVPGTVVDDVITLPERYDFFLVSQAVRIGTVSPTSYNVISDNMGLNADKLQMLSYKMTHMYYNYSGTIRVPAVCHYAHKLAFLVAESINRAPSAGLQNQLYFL
The test can be described thus: pull-down; purified FLAG-tagged Aub or FLAG-GFP control bound to anti-FLAG beads; purified Myc-eIF4A added in PBS, 0.05% IGEPAL CA-630, 4 °C, 60 min; western blot with anti-c-Myc. Conditions: both partners purified. (Immunoblotting shows a protein as a band on a membrane.)

B1: Myc-tagged eIF4A (enzyme, Drosophila, UniProt Q02748 1-403, looked up)
chain: MDDRNEIPQDGPASMEPEGVIESTWHEVYDNFDDMNLREELLRGIYGYGFEKPSAIQQRAIIPCVRGRDVIAQAQSGTGKTATFSIAILQQIDTSIRECQALILAPTRELATQIQRVVMALGEYMKVHSHACIGGTNVREDARILESGCHVVVGTPGRVYDMINRKVLRTQYIKLFVLDEADEMLSRGFKDQIQDVFKMLPPDVQVILLSATMPPDVLEVSRCFMRDPVSILVKKEELTLEGIKQFYVNVKQENWKLGTLCDLYDTLSITQSVIFCNTRRKVDQLTQEMSIHNFTVSAMHGDMEQRDREVIMKQFRSGSSRVLITTDLLARGIDVQQVSLVINYDLPSNRENYIHRIGRGGRFGRKGVAINFITDDDRRILKDIEQFYHTTIEEMPANIADLI
notes: eukaryotic translation initiation factor 4A (eIF4A), ATP-dependent RNA helicase, Drosophila; also called Myc-eIF4A; eukaryotic translation initiation factor 4A; source: S2 cells, purified (anti-c-Myc beads, c-Myc peptide elution)
For B1, the binding result is given as “binds”.

These data come from publication PMC5302063, “In vivo mapping of a dynamic ribonucleoprotein granule interactome in early Drosophila embryos” (FEBS Open Bio, 2016).
